From patent US20260078195A1 (BEIJING MABWORKS BIOTECH, published 2026)

T1: human BCMA expressed on HEK293A cells (human, UniProt Q02223 1-184)
T1 construct: also called HEK293A/human BCMA cells
T1 sequence: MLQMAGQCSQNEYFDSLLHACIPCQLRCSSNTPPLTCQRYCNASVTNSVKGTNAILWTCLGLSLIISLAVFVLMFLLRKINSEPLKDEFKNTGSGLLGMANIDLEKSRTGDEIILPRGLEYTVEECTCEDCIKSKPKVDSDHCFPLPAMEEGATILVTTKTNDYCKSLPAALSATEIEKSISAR

T2: monkey GPRC5D expressed on HEK293T cells (monkey, UniProt Q9NZD1 1-298 (human entry))
T2 construct: also called HEK293T/monkey GPRC5D cells
T2 chain: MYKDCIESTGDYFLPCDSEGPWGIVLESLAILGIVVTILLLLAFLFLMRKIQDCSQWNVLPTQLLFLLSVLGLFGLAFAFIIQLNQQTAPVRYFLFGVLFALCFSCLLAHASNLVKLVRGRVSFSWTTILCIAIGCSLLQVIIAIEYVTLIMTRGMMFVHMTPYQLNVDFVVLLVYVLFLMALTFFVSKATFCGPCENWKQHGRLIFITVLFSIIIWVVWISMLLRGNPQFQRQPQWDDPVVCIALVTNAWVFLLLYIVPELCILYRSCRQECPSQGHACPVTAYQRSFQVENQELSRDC

T3: mouse BCMA expressed on HEK293A cells (mouse, UniProt O88472 1-185)
T3 construct: also called HEK293A/mouse BCMA cells
T3 sequence: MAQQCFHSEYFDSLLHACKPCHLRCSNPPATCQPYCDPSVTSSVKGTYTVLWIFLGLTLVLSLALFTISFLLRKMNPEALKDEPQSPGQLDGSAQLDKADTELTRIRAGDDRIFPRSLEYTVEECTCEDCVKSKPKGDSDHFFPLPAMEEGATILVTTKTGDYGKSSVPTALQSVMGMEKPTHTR

T4: human BCMA antigen (Cat #:BCA-H522y, ACRO) (human, UniProt Q02223 1-54)
T4 construct: Bought recombinant protein used as SPR analyte
T4 sequence: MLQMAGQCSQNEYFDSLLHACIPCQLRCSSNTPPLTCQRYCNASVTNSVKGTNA

B1: MBS314 (tri-specific GPRC5D×BCMA×CD3 antibody) (other)
heavy 1: QVQLVQSGAEVKKPGASVKVSCKASGYTFTNHIIHWVRQAPGQGLEWMGYINPYPGYHGYNDKFSGRATMTSDTSTSTVYMELSSLRSEDTAVYYCARDGYYRDQDVLDYWGQGTLVTVSSGGGGSGGGGSGGGGSGGGGSDIQMTQSPSSLSASVGDRVTITCKASQDISQYLNWYQQKPGKAPKLLIYYTSGLHPGVPSRFSGSGSGTDFTFTISSLEPEDEATYYCQQGYALPWTFGQGTKLTAKGGGGSGGGGSGGGGSEVQLVESGGGLVQPGRSLRLSCAASGFTFDDFAMHWVRQAPGKGLEWVSGITWNSGSVGYADSVKGRFTISRDNAKKSLYLQMNSLRAEDTALYYCAKDRSGYGHYYYGMDVWGQGTTVTVASASTKGPSVFPLAPSSKSTSGGTAALGCLVKDYFPEPVTVSWNSGALTSGVHTFPAVLQSSGLYSLSSVVTVPSSSLGTQTYICNVNHKPSNTKVDKKVEPKSCDKTHTCPPCPAPEAAGGPSVFLFPPKPKDTLMISRTPEVTCVVVDVSHEDPEVKFNWYVDGVEVHNAKTKPREEQYASTYRVVSVLTVLHQDWLNGKEYKCKVSNKALPAPIEKTISKAKGQPREPQVYTLPPSREEMTKNQVSLWCLVKGFYPSDIAVEWESNGQPENNYKTTPPVLDSDGSFFLYSKLTVDKSRWQQGNVFSCSVMHEALHNHYTQKSLSLSPGK
light 1: not shown
heavy 2: QVQLQESGPGLVKPSETLSLTCTVSGYSITSDYAWNWIRQPPGKGLEWMGYISYSGSATYSPSLKSRITISRDTSKNQFSLKLSSVTAADTAVYYCARGGIAGRGRWGAMDYWGQGTTVTVSSASTKGPSVFPLAPSSKSTSGGTAALGCLVKDYFPEPVTVSWNSGALTSGVHTFPAVLQSSGLYSLSSVVTVPSSSLGTQTYICNVNHKPSNTKVDKKVEPKSCDKTHTCPPCPAPEAAGGPSVFLFPPKPKDTLMISRTPEVTCVVVDVSHEDPEVKFNWYVDGVEVHNAKTKPREEQYASTYRVVSVLTVLHQDWLNGKEYKCKVSNKALPAPIEKTISKAKGQPREPQVYTLPPSREEMTKNQVSLSCAVKGFYPSDIAVEWESNGQPENNYKTTPPVLDSDGSFFLVSKLTVDKSRWQQGNVFSCSVMHEALHNHYTQKSLSLSPGK
light 2: DIQMTQSPSSLSASVGDRVTITCKASQNVGTNVAWYQQKPGQSPKALIYSASYRDSGVPDRFSGSGSGTDFTLTISSLQPEDFATYYCQQYKSYPLTFGQGTRLEIKRTVAAPSVFIFPPSDEQLKSGTASVVCLLNNFYPREAKVQWKVDNALQSGNSQESVTEQDSKDSTYSLSSTLTLSKADYEKHKVYACEVTHQGLSSPVTKSFNRGEC
notes: also called antibody MBS314; tri-specific CD3×BCMA×GPRC5D antibody
B2: JNJ-64407564 (bi-specific GPRC5D×CD3 antibody) (bispecific antibody)
chain 1: QVQLVQSGAEVKKPGASVKVSCKASGYSFTGYTMNWVRQAPGQGLEWMGLINPYNSDTNYAQKLQGRVTMTTDTSTSTAYMELRSLRSDDTAVYYCARVALRVALDYWGQGTLVTVSS
chain 2: DIQMTQSPSSLSASVGDRVTITCKASQNVATHVGWYQQKPGKAPKRLIYSASYRYSGVPSRFSGSGSGTEFTLTISNLQPEDFATYYCQQYNRYPYTFGQGTKLEIK
chain 3: EVQLVESGGGLVQPGGSLRLSCAASGFTFNTYAMNWVRQAPGKGLEWVARIRSKYNNYATYYAASVKGRFTISRDDSKNSLYLQMNSLKTEDTAVYYCARHGNFGNSYVSWFAYWGQGTLVTVSS
chain 4: QTVVTQEPSLTVSPGGTVTLTCRSSTGAVTTSNYANWVQQKPGQAPRGLIGGTNKRAPGTPARFSGSLLGGKAALTLSGVQPEDEAEYYCALWYSNLWVFGGGTKLTVL

Tests used:
[1] = molecular target: T5, human GPRC5D expressed on HEK293T cells (human, UniProt Q9NZD1 1-345); experiment: FACS on HEK293T/human GPRC5D cells, PE goat anti-human IgG (H+L) secondary antibody, MFI
T5 construct: also called HEK293T/human GPRC5D cells
T5 sequence (Q9NZD1 whole entry): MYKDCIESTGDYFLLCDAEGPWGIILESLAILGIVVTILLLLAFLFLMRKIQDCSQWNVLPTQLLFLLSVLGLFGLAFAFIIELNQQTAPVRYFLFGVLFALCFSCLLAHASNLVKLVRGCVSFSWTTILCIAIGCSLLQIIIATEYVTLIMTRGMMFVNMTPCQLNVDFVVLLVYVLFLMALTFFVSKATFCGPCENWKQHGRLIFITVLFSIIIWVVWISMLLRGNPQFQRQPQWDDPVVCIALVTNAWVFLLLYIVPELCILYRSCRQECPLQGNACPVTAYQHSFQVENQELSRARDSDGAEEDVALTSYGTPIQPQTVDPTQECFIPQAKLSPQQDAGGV
Protocol: (§1) The cells were re-suspended in PBS, counted, and centrifuged again to remove the supernatants. The cells were re-suspended in 2% FBS-PBS, to adjust the cell concentration to 4×10⁶/ml. Each kind of cells were added to 96-well U-bottom plates, 50 μl/well. The antibodies were diluted in 2% FBS-PBS, 5-fold serial dilution starting at 40 μg/ml, obtaining 12 concentrations in total. The 96-well plates were added with 50 μl antibody dilution, mixed well, and incubated at room temperature for 1 h. The plates were washed by 2% FBS-PBS, 200 μl/well, for three times. The plates were added with PE labelled goat-anti-human IgG (H+L) secondary antibody (1:500 diluted), 50 μl/well, and incubated at room temperature for 45 min. The plates were washed by 2% FBS-PBS, 200 μl/well, for three times. Finally the plates were added with 150 μl 2% FBS-PBS to re-suspend the cells, and the cells were tested in a flow cytometer. The data was processed in FlowJo and analyzed in GraphPad.

[2] = molecular target: T1, human BCMA expressed on HEK293A cells; experiment: FACS on HEK293A/human BCMA cells, PE goat anti-human IgG (H+L) secondary antibody, MFI
Protocol: as §1

[3] = molecular target: T2, monkey GPRC5D expressed on HEK293T cells; experiment: FACS on HEK293T/monkey GPRC5D cells, PE goat anti-human IgG (H+L) secondary antibody, MFI
Protocol: as §1

[4] = molecular target: T6, monkey BCMA expressed on HEK293A cells (monkey, UniProt Q02223 1-184 (human entry)); experiment: FACS on HEK293A/monkey BCMA cells, PE goat anti-human IgG (H+L) secondary antibody, MFI
T6 construct: also called HEK293A/monkey BCMA cells
T6 sequence (Q02223 other isoform, or with tags, fused parts or gaps): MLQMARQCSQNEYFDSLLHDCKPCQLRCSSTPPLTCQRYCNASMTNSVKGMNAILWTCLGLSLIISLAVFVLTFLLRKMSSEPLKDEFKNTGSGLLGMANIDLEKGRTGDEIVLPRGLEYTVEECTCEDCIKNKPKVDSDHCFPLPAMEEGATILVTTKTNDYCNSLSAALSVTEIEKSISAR
Protocol: as §1

[5] = molecular target: T3, mouse BCMA expressed on HEK293A cells; experiment: FACS on HEK293A/mouse BCMA cells, PE goat anti-human IgG (H+L) secondary antibody, MFI
Protocol: as §1

[6] = molecular target: T4, human BCMA antigen (Cat #:BCA-H522y, …); experiment: SPR (BIAcore 8K), antibody captured by anti-human Fc on CM5 chip, antigen as analyte
Protocol: (§2) The mouse anti-human Fe antibody (Cat #:BR100839, cytiva) was coupled to the surface of a CM5 chip. The antibody to be tested was diluted to 1 μg/ml with the HBS-EP buffer (Cat #:BR-1006-69, GE Life Sciences), to ensure about 100 RU of the antibody was captured by the anti-human Fe antibody. The human BCMA antigen (Cat #:BCA-H522y, ACRO), human CD3D&E protein (Cat #: CT038-H2508H, Sino biological), and human GPRC5D antigen (Cat #:HM05P, Kactus Biosystems) were diluted with HBS-EP buffer to […], respectively. Each protein at different concentrations was flowed through the surface of the stationary phase. Chips were regenerated by 3 M MgCl₂ solution. The kinetics assay was run with the Kinetics Wizard in BIAcore 8K's control software. […] The data was fitted in BIAcore 8K's evaluation software, and KD values of the test antibodies to the above antigens were determined and summarized in Table 1.

[7] = molecular target: T7, human GPRC5D antigen (Cat #:HM05P, Kactus Biosystems) (human, UniProt Q9NZD1 1-345, limits assumed); experiment: as above
T7 construct: Bought antigen used as SPR analyte
T7 sequence (Q9NZD1 whole entry): as the sequence (Q9NZD1 whole entry) above
Protocol: as §2

[8] = molecular target: T8, human CD3D&E protein (Cat #: CT038-H2508H, Sino biological) (human, UniProt P04234 22-105; P07766 23-126); experiment: as above
T8 construct: Bought recombinant delta/epsilon complex used as SPR analyte; also called CD3D&E complex
T8 sequence (P04234 22-105, chain 1 of 2): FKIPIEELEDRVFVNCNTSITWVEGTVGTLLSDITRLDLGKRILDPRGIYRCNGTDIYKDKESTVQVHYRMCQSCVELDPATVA
T8 sequence (P07766 23-126, chain 2 of 2): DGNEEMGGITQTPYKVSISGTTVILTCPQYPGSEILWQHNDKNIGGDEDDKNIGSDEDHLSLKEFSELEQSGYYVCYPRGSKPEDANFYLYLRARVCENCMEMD
Protocol: as §2

[9] = molecular target: T9, human CD3 complex on Jurkat cells (human, UniProt P07766 23-207; P04234 22-171; P09693 23-182; P20963 22-164); experiment: FACS on Jurkat cells, PE goat anti-human IgG (H+L) secondary antibody, MFI
T9 construct: whole, on cells; Endogenous CD3 complex of Jurkat / JURKAT-NFAT-Luc cells; also called human Jurkat T cells; CD3 on the surface of JURKAT-NFAT-Luc cells
T9 sequence (P07766 23-207, chain 1 of 4): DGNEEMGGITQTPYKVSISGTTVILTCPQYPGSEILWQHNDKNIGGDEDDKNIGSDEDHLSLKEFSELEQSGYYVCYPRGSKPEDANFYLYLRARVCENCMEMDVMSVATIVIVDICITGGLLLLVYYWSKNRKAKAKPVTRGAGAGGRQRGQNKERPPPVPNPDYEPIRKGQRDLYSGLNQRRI
T9 sequence (P04234 22-171, chain 2 of 4): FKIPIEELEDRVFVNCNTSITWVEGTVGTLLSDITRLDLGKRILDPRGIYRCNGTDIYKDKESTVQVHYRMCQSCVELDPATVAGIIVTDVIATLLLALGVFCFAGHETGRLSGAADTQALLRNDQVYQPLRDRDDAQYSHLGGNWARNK
T9 sequence (P09693 23-182, chain 3 of 4): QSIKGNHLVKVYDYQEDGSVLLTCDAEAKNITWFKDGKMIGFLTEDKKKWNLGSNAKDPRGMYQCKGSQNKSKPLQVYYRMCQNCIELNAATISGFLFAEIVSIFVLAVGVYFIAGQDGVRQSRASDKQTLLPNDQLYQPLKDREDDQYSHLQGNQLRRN
T9 sequence (P20963 22-164, chain 4 of 4): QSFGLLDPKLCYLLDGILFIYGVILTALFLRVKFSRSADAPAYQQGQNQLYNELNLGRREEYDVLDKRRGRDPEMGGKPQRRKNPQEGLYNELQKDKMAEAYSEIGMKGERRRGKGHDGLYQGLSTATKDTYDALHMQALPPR
Protocol: as §1

Binder	EC50 (read off the curve) [1] [µg/mL]	EC50 (read off the curve) [2] [µg/mL]	EC50 (read off the curve) [3] [µg/mL]	EC50 (read off the curve) [4] [µg/mL]	binding result [5]	Kd [6] [nM]	koff [6] [s⁻¹]	kon [6] [M⁻¹ s⁻¹]	Kd [7] [nM]	koff [7] [s⁻¹]	kon [7] [M⁻¹ s⁻¹]	Kd [8] [nM]	koff [8] [s⁻¹]	kon [8] [M⁻¹ s⁻¹]	binding result [9]	EC50 (read off the curve) [9] [µg/mL]
B1	~0.4	~1	~0.4	~0.8	no binding	0.441	0.000283	642000	3.53	0.00174	493000	249	0.00774	31100	binds	–
B2	–	–	–	–	–	–	–	–	–	–	–	–	–	–	–	~0.06
